From patent US20100003195A1 (published 2010)
Each block holds one binder with its values, some of them ahead of it. Bridge positions count the residues as written; N and C are the ends. Primed or numbered codes have the meaning given here. Ends that are not written are not given here. I, II: the chains in the order shown. * marks the point of attachment. ivDde′ = (4,4-dimethyl-2,6-dioxocyclohex-1-ylidene)-3-methylbutyl protecting group, CC(C)CC(=C1C(=O)CC(C)(C)CC1=O)*

Experiments:
[1] = biological target: T1, KDR on HUVECs (human, UniProt P35968 20-1356); test: cell-based or functional assay
[2] = biological target: T2, human KDR-Fc chimeric fusion (R&D Systems #357-KD-05) (human, UniProt P35968 20-764); test: BIAcore steady state, KD1, KDR-Fc at 1600 RU
T2 construct: bought; also called KDR Fc fusion
Description: (§1) All samples were injected in duplicate. […] Following a 10 minute dissociation, any remaining peptide was stripped from the KDR surface with a quickinject of 50 mM NaOH+1 M NaCl for 12 s at 75 μL/min. Sensorgrams were analyzed using BIAevaluation software 3.1 and a hyperbolic double rectangular regression equation in SigmaPlot 6.0.

[3] = biological target: T2, human KDR-Fc chimeric fusion (R&D …); test: BIAcore steady state, KD1, KDR-Fc at 3000 RU
Description: as §1

[4] = biological target: T2, human KDR-Fc chimeric fusion (R&D …); test: BIAcore steady state, KD1, KDR-Fc at 6000 RU
Description: as §1

[5] = biological target: T2, human KDR-Fc chimeric fusion (R&D …); test: BIAcore steady state, KDAV, KDR-Fc at 1600 RU
Description: as §1

[6] = biological target: T2, human KDR-Fc chimeric fusion (R&D …); test: BIAcore steady state, KDAV, KDR-Fc at 3000 RU
Description: as §1

[7] = biological target: T2, human KDR-Fc chimeric fusion (R&D …); test: BIAcore steady state, KDAV, KDR-Fc at 6000 RU
Description: as §1

[8] = biological target: T2, human KDR-Fc chimeric fusion (R&D …); test: BIAcore steady state at the higher immobilization densities
Description: as §1

[9] = biological target: T1, KDR on HUVECs; test: cell-based or functional assay; remark: listed apart in the source
[10] = biological target: T3, KDR on KDR-transfected 293H cells (human, UniProt P35968 20-1356); test: competitor 125I-VEGF (300 pM), KDR-transfected 293H cells, peptide 30 µM
T3 construct: whole, on cells; also called KDR-expressing cells; KDR-transfected cells

[11] = biological target: T3, KDR on KDR-transfected 293H cells; test: competitor 125I-VEGF (300 pM), KDR-transfected 293H cells, peptide 0.3 µM
[12] = biological target: T3, KDR on KDR-transfected 293H cells; test: radioligand binding, 1-4 µCi/mL, KDR- vs mock-transfected 293H cells
[13] = biological target: T3, KDR on KDR-transfected 293H cells; test: Tc-labeled dimer on KDR- vs mock-transfected 293H cells

T3 sequence (P35968 20-1356): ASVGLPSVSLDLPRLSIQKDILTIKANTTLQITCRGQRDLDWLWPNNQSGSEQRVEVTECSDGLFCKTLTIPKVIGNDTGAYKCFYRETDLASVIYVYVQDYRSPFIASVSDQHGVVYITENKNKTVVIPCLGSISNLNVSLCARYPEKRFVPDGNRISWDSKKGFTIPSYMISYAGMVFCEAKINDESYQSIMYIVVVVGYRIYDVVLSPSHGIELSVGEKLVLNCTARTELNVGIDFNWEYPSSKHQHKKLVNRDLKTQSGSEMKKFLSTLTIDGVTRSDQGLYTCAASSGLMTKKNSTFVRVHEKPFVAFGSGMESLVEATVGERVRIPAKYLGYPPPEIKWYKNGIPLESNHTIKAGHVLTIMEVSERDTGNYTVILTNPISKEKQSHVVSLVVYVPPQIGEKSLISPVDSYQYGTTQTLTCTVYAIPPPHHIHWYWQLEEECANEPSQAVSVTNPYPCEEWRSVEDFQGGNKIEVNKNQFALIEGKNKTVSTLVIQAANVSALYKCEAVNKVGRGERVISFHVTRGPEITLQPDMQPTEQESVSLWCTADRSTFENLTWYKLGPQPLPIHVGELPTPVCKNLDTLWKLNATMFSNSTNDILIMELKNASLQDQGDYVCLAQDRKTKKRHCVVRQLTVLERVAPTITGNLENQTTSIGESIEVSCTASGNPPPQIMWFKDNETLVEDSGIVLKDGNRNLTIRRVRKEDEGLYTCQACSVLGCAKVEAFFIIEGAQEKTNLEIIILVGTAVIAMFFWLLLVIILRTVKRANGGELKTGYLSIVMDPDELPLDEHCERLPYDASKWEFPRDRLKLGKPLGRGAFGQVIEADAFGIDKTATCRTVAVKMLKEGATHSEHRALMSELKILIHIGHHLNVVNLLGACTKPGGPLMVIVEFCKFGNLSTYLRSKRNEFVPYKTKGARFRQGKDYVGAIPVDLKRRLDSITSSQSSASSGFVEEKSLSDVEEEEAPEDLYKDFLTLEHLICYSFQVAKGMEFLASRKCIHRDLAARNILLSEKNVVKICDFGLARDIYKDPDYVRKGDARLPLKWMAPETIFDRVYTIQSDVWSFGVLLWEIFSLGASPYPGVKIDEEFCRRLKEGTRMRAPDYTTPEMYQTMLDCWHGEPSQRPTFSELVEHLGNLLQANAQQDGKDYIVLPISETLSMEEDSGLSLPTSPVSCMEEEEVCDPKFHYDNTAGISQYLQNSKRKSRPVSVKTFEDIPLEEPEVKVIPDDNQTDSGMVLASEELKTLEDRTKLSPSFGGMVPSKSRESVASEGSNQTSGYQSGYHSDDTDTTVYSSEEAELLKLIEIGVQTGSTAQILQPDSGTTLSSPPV
T1 sequence (P35968 20-1356): as above
T2 sequence (P35968 20-764, change not shown): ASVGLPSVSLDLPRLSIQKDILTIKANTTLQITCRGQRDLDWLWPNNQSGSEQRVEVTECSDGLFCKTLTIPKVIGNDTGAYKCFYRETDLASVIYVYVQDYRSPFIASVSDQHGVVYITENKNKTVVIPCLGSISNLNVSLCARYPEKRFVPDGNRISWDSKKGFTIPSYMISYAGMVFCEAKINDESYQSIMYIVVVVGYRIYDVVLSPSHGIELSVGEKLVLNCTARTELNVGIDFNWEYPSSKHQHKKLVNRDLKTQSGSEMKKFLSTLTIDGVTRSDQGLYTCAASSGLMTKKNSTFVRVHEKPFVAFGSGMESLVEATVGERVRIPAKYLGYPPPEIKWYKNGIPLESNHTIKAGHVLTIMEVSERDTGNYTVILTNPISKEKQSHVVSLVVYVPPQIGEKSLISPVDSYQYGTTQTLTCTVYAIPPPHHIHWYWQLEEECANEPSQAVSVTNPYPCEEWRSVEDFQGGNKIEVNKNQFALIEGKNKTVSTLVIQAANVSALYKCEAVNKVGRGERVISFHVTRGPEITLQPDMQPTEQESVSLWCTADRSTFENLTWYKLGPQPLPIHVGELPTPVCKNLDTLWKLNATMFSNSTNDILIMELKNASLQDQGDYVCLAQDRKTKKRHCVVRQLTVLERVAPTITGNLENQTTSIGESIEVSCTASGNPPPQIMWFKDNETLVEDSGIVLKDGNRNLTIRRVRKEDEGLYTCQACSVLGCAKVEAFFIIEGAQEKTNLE

B1: dimer 6 (D6) (peptide)
peptide 1: GDSRVCWEDSWGGEVCFRYDPGGGK
peptide 2: AGPTWCEDDWYYCWLFGTGGGK
modifications: disulfide I:6-I:16, II:6-II:13 (inferred); also: heterodimer made with glutaric acid bis-NHS ester
notes: heterodimer made with glutaric acid bis-NHS ester
- IC50, VEGF-induced HUVEC migration [1]: ~12.5 nM
- Kd [2]: 46 nM
- Kd [3]: 25.5 nM
- Kd [4]: 17 nM
- Kd [5]: 1.5 nM
- Kd [6]: 0.665 nM
- Kd [7]: 0.662 nM
- Kd [8]: ~0.6 nM

B2: SEQ ID NO:306 (peptide)
peptide: Ac-AQAFPRFGGDDYWIQQYLRYTDGGK-NH2
modifications: also: fluorescein on C-terminal Lys in FP only
- VEGF-induced KDR phosphorylation, HUVEC immunoblot [9]: ≥ 50 % inhibition at 10 µM

B4: dimer 17 (D17) (peptide)
peptide 1: AQDWYYDEILGRGGRGGRGGK
peptide 2: VCWEDSWGGEVCFRYDPGGGK
modifications: not fully specified; N-acetyl; C-terminal Lys(JJ-Glut) amide; N-acetyl; J spacer within the chain
- IC50, VEGF-induced HUVEC migration [1]: ~250 nM

B6: SEQ ID NO:267 (peptide)
peptide: Ac-AGWLECYAEFGHCYNFGTGGGK-NH2
modifications: disulfide 6-13 (inferred); also: fluorescein on C-terminal Lys in FP only
- VEGF-induced KDR phosphorylation, HUVEC immunoblot [9]: ≥ 50 % inhibition at 10 µM

B7: SEQ ID NO:277 (peptide)
peptide: AGPTWCEDDWYYCWLFGTGGGK
modifications: N-acetyl; C-terminal amide; fluorescein on C-terminal Lys in FP and in Table 15
- IC50, receptor activation assay [1]: 0.1 µM
- % inhibition of 125I-labeled VEGF binding [10]: 104%
- % inhibition of 125I-labeled VEGF binding [11]: 81%

B8: 125I-labeled D5 (peptide)
peptide 1: Ac-VCWEDSWGGEVCFRYDPGGGK-NH2
peptide 2: Ac-AGPTWCEDDWYYCWLFGTGGGK-NH2
modifications: disulfide I:2-I:12, II:6-II:13 (inferred); not fully specified (bridges); also: dimer joined by JJ-glutaryl-Lys linker, 125I Bolton-Hunter label, site not given here
notes: also called dimer 5
- binding result [12]: binds

B10: SEQ ID NO:307 (peptide)
peptide: Ac-AQGDYVYWEIIELTGATDHTPPGGK-NH2
modifications: also: fluorescein on C-terminal Lys in FP only
- VEGF-induced KDR phosphorylation, HUVEC immunoblot [9]: ≥ 50 % inhibition at 10 µM

B11: dimer 25 (D25) (peptide)
peptide 1: Ac-AGPTWCEDDWYYCWLFGTGGGK-NH2
peptide 2: Ac-GDSRVCWEDSWGGEVCFRYDPGGGK-NH2
modifications: disulfide I:6-I:13, II:6-II:16 (inferred); not fully specified (bridges); also: dimer joined by JJ-Glut-Lys linker
- IC50, VEGF-induced HUVEC migration [1]: 5 nM

B12: SEQ ID NO:294 (peptide)
peptide: Ac-GDSRVCWEDSWGGEVCFRYDPGGGK-NH2
modifications: disulfide 6-16 (inferred); also: fluorescein on C-terminal Lys in FP only
- VEGF-induced KDR phosphorylation, HUVEC immunoblot [9]: ≥ 50 % inhibition at 10 µM
- % inhibition of 125I-labeled VEGF binding [10]: 96.3%
- % inhibition of 125I-labeled VEGF binding [11]: 52.3%

The remaining lines, values ahead:

- VEGF-induced KDR phosphorylation, HUVEC immunoblot [9]: ≥ 50 % inhibition at 10 µM
B3: SEQ ID NO:305 (peptide)
peptide: Ac-AQEPEGYAYWEVITLYHEEDGDGGK-NH2
modifications: also: fluorescein on C-terminal Lys in FP only

- VEGF-induced KDR phosphorylation, HUVEC immunoblot [9]: ≥ 50 % inhibition at 10 µM
B5: SEQ ID NO:301 (peptide)
peptide: Ac-GDPDTCTMWGDSGRWYCFPADPGGGK-NH2
modifications: disulfide 6-17 (inferred); also: fluorescein on C-terminal Lys in FP only

- VEGF-induced KDR phosphorylation, HUVEC immunoblot [9]: ≥ 50 % inhibition at 10 µM
B9: SEQ ID NO:366 having a blocked K (peptide)
peptide: Ac-GDWWECK(ivDde′)REEYRNTTWCAWADPGGGK-NH2
modifications: disulfide 6-17 (inferred)

- VEGF-induced KDR phosphorylation, HUVEC immunoblot [9]: ≥ 50 % inhibition at 10 µM
B13: SEQ ID NO:269 (peptide)
peptide: Ac-AGWIECYHPDGICYHFGTGGGK-NH2
modifications: disulfide 6-13 (inferred); also: fluorescein on C-terminal Lys in FP only

- binding result [13]: no binding (tested: up to 10 µCi/mL)
B14: Tc-labeled D18 (scrambled derivative of D10) (peptide)
peptide 1: Ac-APGTWCDYDWEYCWLGTFGGGK-NH2
peptide 2: Ac-GVDFRCEWSDWGEVGCRSPDYGGGK-NH2
modifications: disulfide I:6-I:13, II:6-II:16 (inferred); not fully specified (some residues, bridges); also: 99mTc chelated by PnAO6, J not defined
notes: control; also called dimer 18
